molecular target: HLA-A*02:01 (Homo sapiens, UniProt P04439, D140Y/D185E/D98H/E176V/E277Q/G131W/G231S/I119V/I121R/I166T/I218V/L300P/L318F/N151K/N90K/P208A/P217A/Q86G/Q94H/R138H/R169H/T345S); test: MHC binding assay (UV-ligand exchange, beta2m ELISA); conditions: binding of HLA-class I restricted peptides to HLA-A*02:01, β2m ELISA
Outline: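 UV-exchange pMHC monomers, 100-fold diluted → streptavidin capture 1 h 37 °C → HRP anti-β2m 2 ug/ml 1 h 37 °C → TMB, A450. Yield from HLA-A*02:01/MLA-001 monomer standard curve, 15-500 ng/ml. Only stably bound peptides keep β2m-containing complexes intact.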

| Substance | Peptide Exchange (MHC class I binding score, peptide exchange yield) |
| --- | --- |
| 91 (ILDLNTYNV; listed as Homo sapiens) [compound 91] | “+++” (≥50 = +++) |
| 74 (GLLRASFLL; listed as Homo sapiens) [compound 74] | “++” (≥20% = ++) |
| 87 (HQIEAVDGEEL; listed as Homo sapiens) [compound 87] | “++” (≥20% = ++) |
| 64 (KLLESVASA; listed as Homo sapiens) [compound 64] | “+++” (≥50 = +++) |
| 183 (VLMPTVYQQGV; listed as Homo sapiens) [compound 183] | “+++” (≥50 = +++) |
| 134 (MLLEHGITLV; listed as Homo sapiens) [compound 134] | “++++” (≥75% = ++++) |
| 109 (KLWEGLTELV; listed as Homo sapiens) [compound 109] | “+++” (≥50 = +++) |
| 162 (SMKDDLENV; listed as Homo sapiens) [compound 162] | “++” (≥20% = ++) |
| 3 (VIAELPPKV; listed as Homo sapiens) [compound 3] | “++” (≥20% = ++) |
| 175 (FTVPRVVAV; listed as Homo sapiens) [compound 175] | “+++” (≥50 = +++) |
| 137 (NLIKTVIKL; listed as Homo sapiens) [compound 137] | “+++” (≥50 = +++) |
| 105 (KLMNDIADI; listed as Homo sapiens) [compound 105] | “++” (≥20% = ++) |
| 70 (FVPDTPVGV; listed as Homo sapiens) [compound 70] | “+++” (≥50 = +++) |
| 145 (SALDTITTV; listed as Homo sapiens) [compound 145] | “+++” (≥50 = +++) |
| 21 (ALWAGLLTL; listed as Homo sapiens) [compound 21] | “+++” (≥50 = +++) |
| 151 (SLFDSAYGA; listed as Homo sapiens) [compound 151] | “+++” (≥50 = +++) |
| 146 (SIIEGPIIKL; listed as Homo sapiens) [compound 146] | “+++” (≥50 = +++) |
| 110 (LLFDHLEPMEL; listed as Homo sapiens) [compound 110] | “+++” (≥50 = +++) |
| 161 (SMDDGMINV; listed as Homo sapiens) [compound 161] | “+++” (≥50 = +++) |
| 20 (ALVDPGPDFVV; listed as Homo sapiens) [compound 20] | “+++” (≥50 = +++) |
| 4 (VIAELPPKVSV; listed as Homo sapiens) [compound 4] | “+++” (≥50 = +++) |
| 65 (GLDDMKANL; listed as Homo sapiens) [compound 65] | “++” (≥20% = ++) |
| 38 (FIMEGGAMV; listed as Homo sapiens) [compound 38] | “+++” (≥50 = +++) |
| 71 (GLKHDIARV; listed as Homo sapiens) [compound 71] | “+++” (≥50 = +++) |
| 141 (QILSEIVEA; listed as Homo sapiens) [compound 141] | “++” (≥20% = ++) |
| 13 (VVDGMPPGV; listed as Homo sapiens) [compound 13] | “+++” (≥50 = +++) |
| 140 (QIAELPATSV; listed as Homo sapiens) [compound 140] | “+++” (≥50 = +++) |
| 76 (GLLRIIPYL; listed as Homo sapiens) [compound 76] | “+++” (≥50 = +++) |
| 10 (FVYGESVEL; listed as Homo sapiens) [compound 10] | “+++” (≥50 = +++) |
| 135 (MTAGFSTIAGSV; listed as Homo sapiens) [compound 135] | “+” (≥10% = +) |

Second part, the substance after the results:

| Peptide Exchange (MHC class I binding score, peptide exchange yield) | Substance |
| --- | --- |
| “+++” (≥50 = +++) | 224 (AMEALVVEV; listed as Homo sapiens) [compound 224] |
| “+++” (≥50 = +++) | 198 (YLTFLPAEV; listed as Homo sapiens) [compound 198] |
| “++” (≥20% = ++) | 269 (TLTDEQFLV; listed as Homo sapiens) [compound 269] |
| “++++” (≥75% = ++++) | 340 (KLLEEICNL; listed as Homo sapiens) [compound 340] |
| “+++” (≥50 = +++) | 252 (NLLDPGSSYLL; listed as Homo sapiens) [compound 252] |
| “+++” (≥50 = +++) | 242 (ILLGIQELL; listed as Homo sapiens) [compound 242] |
| “+++” (≥50 = +++) | 324 (SLYSALQQA; listed as Homo sapiens) [compound 324] |
| “++++” (≥75% = ++++) | 384 (YMIGSEVGNYL; listed as Homo sapiens) [compound 384] |
| “+++” (≥50 = +++) | 361 (ILQEFESKL; listed as Homo sapiens) [compound 361] |
| “+++” (≥50 = +++) | 239 (ILAGEMLSV; listed as Homo sapiens) [compound 239] |
| “+++” (≥50 = +++) | 225 (ILQERELLPV; listed as Homo sapiens) [compound 225] |
| “+++” (≥50 = +++) | 253 (NLWSVDGEVTV; listed as Homo sapiens) [compound 253] |
| “+++” (≥50 = +++) | 372 (SLFGPLPGPGPALV; listed as Homo sapiens) [compound 372] |
| “+++” (≥50 = +++) | 348 (ALAKPPVVSV; listed as Homo sapiens) [compound 348] |
| “+++” (≥50 = +++) | 318 (NLQVTQPTV; listed as Homo sapiens) [compound 318] |
| “+++” (≥50 = +++) | 219 (ALLNLLESA; listed as Homo sapiens) [compound 219] |
| “+++” (≥50 = +++) | 204 (GLLQINDKIAL; listed as Homo sapiens) [compound 204] |
| “+++” (≥50 = +++) | 276 (VLNDGAPNV; listed as Homo sapiens) [compound 276] |
| “++++” (≥75% = ++++) | 285 (GVATAGCVNEV; listed as Homo sapiens) [compound 285] |

| Peptide Exchange (MHC class I binding score, peptide exchange yield) | Substance |
| --- | --- |
| “++” (≥20% = ++) | 188 (VMGDIPAAV; listed as Homo sapiens) [compound 188] |
| “+++” (≥50 = +++) | 280 (YTLDSLYWSV; listed as Homo sapiens) [compound 280] |
| “+++” (≥50 = +++) | 357 (FLIQEIKTL; listed as Homo sapiens) [compound 357] |
| “+++” (≥50 = +++) | 370 (SIFASPESV; listed as Homo sapiens) [compound 370] |
| “++” (≥20% = ++) | 337 (YMYEKESEL; listed as Homo sapiens) [compound 337] |
| “+++” (≥50 = +++) | 333 (VTLEFPQLIRV; listed as Homo sapiens) [compound 333] |
| “++++” (≥75% = ++++) | 326 (VLAFLVHEL; listed as Homo sapiens) [compound 326] |
| “+++” (≥50 = +++) | 243 (ILPTLEKELFL; listed as Homo sapiens) [compound 243] |
| “+++” (≥50 = +++) | 236 (GLLESGRHYL; listed as Homo sapiens) [compound 236] |
| “+++” (≥50 = +++) | 359 (FMQDPMEVFV; listed as Homo sapiens) [compound 359] |
| “++++” (≥75% = ++++) | 245 (KIMDYSLLLGV; listed as Homo sapiens) [compound 245] |
| “+++” (≥50 = +++) | 283 (ILQPMDIHV; listed as Homo sapiens) [compound 283] |
| “+++” (≥50 = +++) | 339 (GLWGTVVNI; listed as Homo sapiens) [compound 339] |
| “++++” (≥75% = ++++) | 294 (ALLDQLHTLL; listed as Homo sapiens) [compound 294] |
| “+++” (≥50 = +++) | 314 (LMKDCEAEV; listed as Homo sapiens) [compound 314] |
| “+++” (≥50 = +++) | 302 (ILQDLTFVHL; listed as Homo sapiens) [compound 302] |
| “+++” (≥50 = +++) | 360 (HLIDTNKIQL; listed as Homo sapiens) [compound 360] |
| “+++” (≥50 = +++) | 214 (RLQELTEKL; listed as Homo sapiens) [compound 214] |
